Reference: patent US20140357549A1 (UNIVERSITY OF PITTSBURGH OF THE COMMONWEALTH SYSTEM OF …, published 2014)

Molecular target: T1, Nox1 (UniProt Q9Y5S8 1-564, limits assumed)
T1 sequence (looked up): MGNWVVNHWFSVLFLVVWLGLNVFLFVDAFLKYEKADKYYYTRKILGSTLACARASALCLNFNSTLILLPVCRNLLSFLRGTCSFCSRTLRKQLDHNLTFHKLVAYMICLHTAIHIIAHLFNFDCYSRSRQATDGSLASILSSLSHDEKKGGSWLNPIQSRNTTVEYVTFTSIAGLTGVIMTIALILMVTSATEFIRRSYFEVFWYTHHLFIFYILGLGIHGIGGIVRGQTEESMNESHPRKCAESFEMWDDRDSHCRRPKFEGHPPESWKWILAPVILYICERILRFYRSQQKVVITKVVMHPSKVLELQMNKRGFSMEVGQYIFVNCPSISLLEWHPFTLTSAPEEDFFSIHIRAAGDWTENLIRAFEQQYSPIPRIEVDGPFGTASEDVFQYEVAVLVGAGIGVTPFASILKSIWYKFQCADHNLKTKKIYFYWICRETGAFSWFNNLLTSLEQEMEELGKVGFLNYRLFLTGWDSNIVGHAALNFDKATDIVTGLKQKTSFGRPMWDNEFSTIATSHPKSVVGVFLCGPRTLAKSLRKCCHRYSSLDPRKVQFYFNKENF
Assay: cell-based or functional assay

Question: H-EPVDALGKAKV-NH2 [NoxA1ds] was tested. Which “inhibition of O2^- production by Nox1-transfected COS22 cells (SOD-inhibitable cytochrome c reduction), IC50” value did it give?
Answer: 19 nM
